According to the supplement of paper PMC10567573:

B1: TRIM43 (parent)
chain: RAQMIRNEYRKLHPVLHKEEKQHL

Variants of: B1
Experiment: protein stability index of a GFP-peptide fusion (GPS, HEK-293T) (PSI 1-6); higher = more stable
Conditions: c terminus: a fixed tail appended
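Further: lentivirally expressed fusions sorted by FACS into six bins by GFP to DsRed ratio, PSI derived from sequencing read proportions per bin multiplied by bin number.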

Variant | protein stability index
RAQMIRAEYRKLHPVLHKEEKQHL [N7A] | 2.39
RAQMIRFEYRKLHPVLHKEEKQHL [N7F] | 2.44
RAQMIRPEYRKLHPVLHKEEKQHL [N7P] | 4.17
RAQMIRGEYRKLHPVLHKEEKQHL [N7G] | 3.08
RAQMIRHEYRKLHPVLHKEEKQHL [N7H] | 3.28
RAQMIRWEYRKLHPVLHKEEKQHL [N7W] | 1.96
RAQMIRVEYRKLHPVLHKEEKQHL [N7V] | 2.64
RAQMIRYEYRKLHPVLHKEEKQHL [N7Y] | 2.74
RAQMIRREYRKLHPVLHKEEKQHL [N7R] | 3.15
RAQMIRTEYRKLHPVLHKEEKQHL [N7T] | 3.3
RAQMIRLEYRKLHPVLHKEEKQHL [N7L] | 3.49
RAQMIRDEYRKLHPVLHKEEKQHL [N7D] | 3.35
RAQMIRQEYRKLHPVLHKEEKQHL [N7Q] | 3.33
RAQMIRKEYRKLHPVLHKEEKQHL [N7K] | 3.44
RAQMIRIEYRKLHPVLHKEEKQHL [N7I] | 2.57
RAQMIRMEYRKLHPVLHKEEKQHL [N7M] | 2.98
RAQMIRCEYRKLHPVLHKEEKQHL [N7C] | 3
RAQMIREEYRKLHPVLHKEEKQHL [N7E] | 2.32
RAQMIRSEYRKLHPVLHKEEKQHL [N7S] | 2.83
RAQMVRNEYRKLHPVLHKEEKQHL [I5V] | 3.15
RAQMQRNEYRKLHPVLHKEEKQHL [I5Q] | 3.89
RAQMARNEYRKLHPVLHKEEKQHL [I5A] | 4.03
RAQMWRNEYRKLHPVLHKEEKQHL [I5W] | 2.87
RAQMGRNEYRKLHPVLHKEEKQHL [I5G] | 3.79

Variant | protein stability index
RAQMHRNEYRKLHPVLHKEEKQHL [I5H] | 3.56
RAQMPRNEYRKLHPVLHKEEKQHL [I5P] | 3.83
RAQMYRNEYRKLHPVLHKEEKQHL [I5Y] | 2.92
RAQMNRNEYRKLHPVLHKEEKQHL [I5N] | 4.04
RAQMMRNEYRKLHPVLHKEEKQHL [I5M] | 3.39
RAQMCRNEYRKLHPVLHKEEKQHL [I5C] | 2.02
RAQMLRNEYRKLHPVLHKEEKQHL [I5L] | 3.92
RAQMERNEYRKLHPVLHKEEKQHL [I5E] | 4.06
RAQMKRNEYRKLHPVLHKEEKQHL [I5K] | 3.21
RAQMDRNEYRKLHPVLHKEEKQHL [I5D] | 4.2
RAQMSRNEYRKLHPVLHKEEKQHL [I5S] | 3.67
RAQMIRNCYRKLHPVLHKEEKQHL [E8C] | 2.59
RAQMIRNLYRKLHPVLHKEEKQHL [E8L] | 1.75
RAQMIRNTYRKLHPVLHKEEKQHL [E8T] | 2.56
RAQMIRNRYRKLHPVLHKEEKQHL [E8R] | 2.89
RAQMIRNGYRKLHPVLHKEEKQHL [E8G] | 2.84
RAQMIRNAYRKLHPVLHKEEKQHL [E8A] | 2.16
RAQMIRNDYRKLHPVLHKEEKQHL [E8D] | 3.21
RAQMIRNMYRKLHPVLHKEEKQHL [E8M] | 2.2
RAQMIRNVYRKLHPVLHKEEKQHL [E8V] | 2.33
RAQMIRNIYRKLHPVLHKEEKQHL [E8I] | 2.39
RAQMIRNNYRKLHPVLHKEEKQHL [E8N] | 3
RAQMIRNKYRKLHPVLHKEEKQHL [E8K] | 2.92
RAQMIRNQYRKLHPVLHKEEKQHL [E8Q] | 2.75

Variant | protein stability index
RAQMIRNSYRKLHPVLHKEEKQHL [E8S] | 2.91
RAQMIRNYYRKLHPVLHKEEKQHL [E8Y] | 2.51
RAQMIRNWYRKLHPVLHKEEKQHL [E8W] | 1.33
RAQMIRNPYRKLHPVLHKEEKQHL [E8P] | 2.72
RAQMIRNHYRKLHPVLHKEEKQHL [E8H] | 2.78
RAQMIRNFYRKLHPVLHKEEKQHL [E8F] | 2.91
RAYMIRNEYRKLHPVLHKEEKQHL [Q3Y] | 2.54
RAWMIRNEYRKLHPVLHKEEKQHL [Q3W] | 2.79
RATMIRNEYRKLHPVLHKEEKQHL [Q3T] | 3.27
RASMIRNEYRKLHPVLHKEEKQHL [Q3S] | 3.22
RANMIRNEYRKLHPVLHKEEKQHL [Q3N] | 3.19
RAPMIRNEYRKLHPVLHKEEKQHL [Q3P] | 3.39
RAVMIRNEYRKLHPVLHKEEKQHL [Q3V] | 2.63
RARMIRNEYRKLHPVLHKEEKQHL [Q3R] | 2.81
RAQMIRNEYRKSHPVLHKEEKQHL [L12S] | 4.43
RAQMIRNEYRKQHPVLHKEEKQHL [L12Q] | 3.36
RAQMIRNEYRKFHPVLHKEEKQHL [L12F] | 2.94
RAQMIRNEYRKDHPVLHKEEKQHL [L12D] | 4.02
RAQMIRNEYRKAHPVLHKEEKQHL [L12A] | 3.67
RAQMIRNEYRKMHPVLHKEEKQHL [L12M] | 2.86
RAQMIRNEYRKWHPVLHKEEKQHL [L12W] | 2.96
RAQMIRNEYRKGHPVLHKEEKQHL [L12G] | 4.18
RAQMIRNEYRKHHPVLHKEEKQHL [L12H] | 4.27
RAQMIRNEYRKPHPVLHKEEKQHL [L12P] | 3.96

Variant | protein stability index
RAQMIRNEYRKCHPVLHKEEKQHL [L12C] | 3.03
RAQMIRNEYRKRHPVLHKEEKQHL [L12R] | 3.94
RAQMIRNEYRKYHPVLHKEEKQHL [L12Y] | 3.75
RAQMIRNEYRKTHPVLHKEEKQHL [L12T] | 3.85
RAQMIRNEYRKKHPVLHKEEKQHL [L12K] | 3.7
RAQMIRNEYRKIHPVLHKEEKQHL [L12I] | 3.07
RAQMIRNEYRKEHPVLHKEEKQHL [L12E] | 4.06
RAQMIRNEYRKVHPVLHKEEKQHL [L12V] | 2.97
RAQMIRNEYRKNHPVLHKEEKQHL [L12N] | 4.16
RAQMIRNEYRKLDPVLHKEEKQHL [H13D] | 3.75
RAQMIRNEYRKLLPVLHKEEKQHL [H13L] | 3.28
RAQMIRNEYRKLKPVLHKEEKQHL [H13K] | 3.55
RAQMIRNEYRKLIPVLHKEEKQHL [H13I] | 2.92
RAQMIRNEYRKLEPVLHKEEKQHL [H13E] | 4.06
RAQMIRNEYRKLCPVLHKEEKQHL [H13C] | 3
RAQMIRNEYRKLPPVLHKEEKQHL [H13P] | 3.19
RAQMIRNEYRKLGPVLHKEEKQHL [H13G] | 3.2
RAQMIRNEYRKLAPVLHKEEKQHL [H13A] | 3.46
RAQMIRNEYRKLFPVLHKEEKQHL [H13F] | 2.82
RAQMIRNEYRKLNPVLHKEEKQHL [H13N] | 3.35
RAQMIRNEYRKLMPVLHKEEKQHL [H13M] | 2.94
RAQMIENEYRKLHPVLHKEEKQHL [R6E] | 3.48
